Data taken from patent US10828372B2, “Compositions and methods for the inhibition of fibrosis” (WISCONSIN ALUMNI RESEARCH FOUNDATION, priority 2017, dated 2020).
Where no end group is shown, it is not given here.

Legend:
[1] = Fluorescence imaging (IVIS) of subcutaneous dose absorption; assay type: in vivo, mouse
Method: Preparation of Animal Experiment FUD and 10-40 kDa PEG-FUD Drug Dose: A 12.5 mg FUD equivalents per kg of mouse weight drug dose spiked with 1.5% Cy5 labeled drug was prepared by mixing an appropriate amount of unlabeled and labeled drug in a conical vial. The drug was then dialyzed ON into phosphate buffered saline (pH 7.4) using a 3000 MWCO dialysis membrane. The total volume of the dose was reduced to the appropriate value using a 3000 MWCO Amicon® Ultra-15 centrifugal unit. The final concentration of the drug was determined using a UV-vis spectrophotometer and the 646 nm extinction coefficient of Cy5, ε=271000 L·mol^−1·cm^−1.
10 week old mice weighing 20-23 g were placed under 2% isoflurane anesthesia and positioned on their abdomen inside of an IVIS Spectrum In Vivo Imaging System. A 100 uL dose containing 0.27 mg (12.5 mg/kg) of FUD or FUD equivalents of 10-40 kDa PEG-FUD that was spiked with 1.5% Cy5 labeled drug was delivered subcutaneously between the shoulder blades of the animals (n=3 per treatment group). The animals were imaged before the injection, immediately following injection, and at time points of 30 minutes and 1, 3, 6, 12, 24, 36, and 48 hours. The animals were sacrificed following the last time point and their organs were harvested for ex vivo fluorescence imaging and drug extraction and quantification. LivingImage® (PerkinElmer) software was used to analyze the views of each animal group. The autodraw feature of the software set to a 5% threshold was used to create unique regions of interest (ROI) on each animal at t=30 mins views that were consistently applied to each subsequent time point views to quantify drug levels present at the site of injection. Baseline autoflorescence values calculated from ROIs applied to “before injection” views were subtracted from the values of each time point's animals. The ROI values obtained from the t=30 mins views were used to calculate % dose remaining for each subsequent time point.

[2] = target: T1, 70K N-terminal domain of FN (Homo sapiens, UniProt P02751); settings: background statement; cited from earlier work
T1 construct: specifically to the 70K N-terminal domain of FN involved in fibrillogenesis
T1 sequence (P02751 32-609 limits assumed): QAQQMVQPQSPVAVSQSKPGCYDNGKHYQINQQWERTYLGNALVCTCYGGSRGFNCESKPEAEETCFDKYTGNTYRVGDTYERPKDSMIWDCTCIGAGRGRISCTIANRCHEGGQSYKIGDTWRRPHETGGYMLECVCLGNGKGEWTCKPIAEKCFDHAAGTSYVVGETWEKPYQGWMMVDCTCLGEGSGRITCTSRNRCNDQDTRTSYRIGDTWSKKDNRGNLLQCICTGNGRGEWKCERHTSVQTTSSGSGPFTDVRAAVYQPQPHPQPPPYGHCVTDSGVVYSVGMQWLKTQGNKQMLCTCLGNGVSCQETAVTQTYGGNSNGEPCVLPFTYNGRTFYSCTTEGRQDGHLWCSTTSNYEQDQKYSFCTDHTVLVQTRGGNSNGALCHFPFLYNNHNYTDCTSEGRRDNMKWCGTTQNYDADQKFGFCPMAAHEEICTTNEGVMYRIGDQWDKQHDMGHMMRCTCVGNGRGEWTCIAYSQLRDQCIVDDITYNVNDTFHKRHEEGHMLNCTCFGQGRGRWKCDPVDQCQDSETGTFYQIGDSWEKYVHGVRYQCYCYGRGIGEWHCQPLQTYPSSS

[3] = UUO kidney ECM fraction, s.c. approximately 12.5 mg/kg daily; extrapolated
Method: Unilateral Ureteral Obstruction model. Male C57BL/6 mice were purchased from Envigo (Madison, Wis.) and housed in the Wisconsin Institutes for Medical Research animal facilities at the University of Wisconsin-Madison with ad-libitum access to food and water. Animals were maintained in humidity and temperature-controlled rooms under 12 h light/dark cycles. All work was conducted under protocol M5421, reviewed and approved by the University of Wisconsin-Madison Institutional Animal Care and Use Committee. All efforts were made to minimize suffering. The Unilateral Ureteral Obstruction (UUO) model is a rodent surgical model representing a human equivalent of […]. Obstruction results in marked dilatation of the ureter together with reduced renal blood flow and glomerular filtration. […]
Tissue extraction and immunoblotting: Kidney tissues were fractionated as described in the art. […] Relative quantitation of specific blotted protein was performed by assessing band intensities using Image J and normalizing to bands obtained with rabbit anti-Histone 3 rabbit IgG (CellSignalTechnology, Danves, Mass., USA) or goat anti-GAPDH-HRP conjugated IgG (Genscript, Piscataway, N.J., USA), which were used as loading controls for ECM or lysate fractions, respectively.

Row | Substance | % dose remaining at the site of injection after 24 hours ([1]; s.c. 12.5 mg/kg FUD equivalents, 24 hours) [%] | apparent half-life at the site of injection ([1]; s.c. 12.5 mg/kg, spiked with 1.5% Cy5 labeled drug, nude mice) [min] | binding affinity [2] | PEG-FUD level in kidney [3] [ng per mg]
1 | FUD: 49 amino acid FUD peptide, SEQ ID NO: 1, recombinantly expressed, His-tag removed; inhibitor of fibronectin fibrillogenesis (KDQSPLAGESGETEYITEVYGNQQNPVDIDKKLPNETGFSGNMVETEDT; human) [reference compound] | 0.3 | 35 | nanomolar affinity | 
2 | PEG-FUD: PEGylated FUD prepared as in Example 1, PEG size not stated; approximately 27 kDa by mass spectrometry, likely the 20 kDa conjugate (KDQSPLAGESGETEYITEVYGNQQNPVDIDKKLPNETGFSGNMVETEDT; not fully specified (N-terminus); also: PEG size not given here) |  |  |  | ~50
